Test [1] concerns the target leukocyte interferon (Sigma Product No. I-2396). Briefly: cell-based or functional assay.
The target of test [2] is lymphoblastoid interferon (NIH reference Ga23-901-532).

B1: murine anti-human IFN-α monoclonal antibody 9F3 (antibody, IgG2, V domains shown)
VL: DIVLTQSPASLAVSLGQRATISCRASQSVSTSSYSYMHWYQQKPGQPPKVLISYASNLESGVPARFSGSGSGTDFTLNIHPVEEGDTATYFCQHSWGIPRTFGAGTKLELRRAV
VH: EVQLQQSGPELVKPGASVKISCKTSGYTFTEYIIHWVKQGHGRSLEWIGSINPDYDITNYNQRFKGKATLTLDKSSRTAYLELRSLTSEDSAVYYCASWISDFFDYWGQGTTLMVSAAS
B1 came in with a neutralization of anti-viral activity in test [1] of more than 95%. In test [2], the EC50 (read off the bars); loss of protection by 3 IU/ml lymphoblastoid interferon, cytopathic effect is 3 ng/mL and the EC50 (read off the bars); loss of protection by 10 IU/ml lymphoblastoid interferon, cytopathic effect worked out at 5 ng/mL.

The values above are taken from patent US20070059309A1.
